Results on 3 molecules are retold here after article PMC6933502, “Structural and Functional Insights Into CmGH1, a Novel GH39 Family β-Glucosidase From Deep-Sea Bacterium” (Frontiers in Microbiology, 2019).

Some results are limits rather than exact numbers.

One series concerns the target T1, CmGH1 (Croceicoccus marinus, UniProt A0A1Z1FG87).
T1 construct: gene A9D14_15590; N-terminal His6-SUMO tag (pSMT3) cut with Ulp1; expressed in E. coli BL21 (DE3)
Description: residual p-NPG hydrolysis with added glucose. The class given is biochemical. The settings on record: p-NPG substrate; product inhibition.

Substrate in the series “purified protein”: O=[N+]([O-])c1ccc(O[C@@H]2O[C@H](CO)[C@@H](O)[C@H](O)[C@H]2O)cc1
Description: purified protein. The settings on record: conditions of the Km not stated, optimum pH 9.0, 55°C.

On to `OC[C@H]1OC(O)[C@H](O)[C@@H](O)[C@@H]1O` (some centres unmarked) [glucose], for which the “% relative activity remaining at 200 mM” value on CmGH1 is given as more than 30%.

B1: CmGH1 (Croceicoccus marinus) (protein)
chain: MTSDLIAKLSVNAGEPIGNMRQLHGTSGIPAPAPGTDSVPDILDVWRNAQVTLVRSYDWVSRLDTIDNPTSLFPDWSADPSDPASYNFAATDTWVGQTRSIGANILFTIASEIPANKQPARDLAKYEQVVENIVRHYVCGWGDGFENAVSHWEFGDQPDFGKLHFSGTPDQFYEMYAAAARAVKRVDPALKVGGPCVAFPLNEGPFREGFLDYVKQQSVPLDFLSWMWYGDNSRDPMDFRTIAAEVRAIVDKYGFTDTELLLSYWSMTGIPTAKFEDFDNAAFLAAAAIYMQDSEVDKAIFFRADTGADFHYNFTDPAGIFEDDGSQNARTGAFQLVGQTLATTERLAITGGDDNGFAALAGRTADGDTIRILISNYAIPDMYLTARDRDVFEFQVPIGDQKTDMSLNVPPRRVDARSTGYSGYTLEIGHLPWGDGPHRVVRYRADRDHKGEMLDSHEGRGSSVTVQNKLAVSGVELIEITRVSS
On to B1, for which, in the series “purified protein”, the Km was found to be 332 ± 38 µM and the kcat came to 0.0358 ± 0.00135 s⁻¹.

B2: CmGH1 (Croceicoccus marinus; Q157E) (protein)
chain: MTSDLIAKLSVNAGEPIGNMRQLHGTSGIPAPAPGTDSVPDILDVWRNAQVTLVRSYDWVSRLDTIDNPTSLFPDWSADPSDPASYNFAATDTWVGQTRSIGANILFTIASEIPANKQPARDLAKYEQVVENIVRHYVCGWGDGFENAVSHWEFGDEPDFGKLHFSGTPDQFYEMYAAAARAVKRVDPALKVGGPCVAFPLNEGPFREGFLDYVKQQSVPLDFLSWMWYGDNSRDPMDFRTIAAEVRAIVDKYGFTDTELLLSYWSMTGIPTAKFEDFDNAAFLAAAAIYMQDSEVDKAIFFRADTGADFHYNFTDPAGIFEDDGSQNARTGAFQLVGQTLATTERLAITGGDDNGFAALAGRTADGDTIRILISNYAIPDMYLTARDRDVFEFQVPIGDQKTDMSLNVPPRRVDARSTGYSGYTLEIGHLPWGDGPHRVVRYRADRDHKGEMLDSHEGRGSSVTVQNKLAVSGVELIEITRVSS
As to B2, in the series “purified protein”, the Km is 354.2 ± 42 µM and the kcat stood at 0.488 ± 0.0147 s⁻¹.
